Experimental data published in the nanobody polyreactivity screen of Harvey et al. (2022).

Assay: yeast display, Sf9 membrane polyspecificity reagent, FACS + sequencing; frameworks hold sequencing errors
Procedure, shortened: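 After 36–48 hours of galactose induction, yeast (Saccharomyces cerevisiae BJ5465) displaying a synthetic nanobody library were stained at 4 °C for 1 hour with 10% biotinylated, detergent-solubilized Sf9 membrane reagent. Streptavidin microbeads enriched the stained cells before FACS sorting into low and high (top ~1%) gates on anti-HA and streptavidin fluorescence. Each clone's polyreactivity label reflects its gate of origin.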

Sequence | polyreactivity (PSR sort gate)
QVQLVESGGGLVQAGGSLRLSCAASGSTFDSYAMGWYSQAPGKERELVAAITYSGGRTYYADSVKGRFTISRDNAKNTVYLQMNSLKPEDTAVYYCAATGVFRDEYWGQGTQVTVSS | low polyreactivity
QVQLVESGGGSVQAGGSLRLSCAASGFIFDGYTMGWYRQAPGKERELVAAISRSGGRTYYADSVKGRFTISRDNAKHTVYLQLNSLKPEDTAVYYCAVRYRQYSQTVASDYGYWGQGTQVTVSS | high polyreactivity
QVQLVESGGGLVQAGGSLRLSCAASGRTFLRYAMGWYRQAPGKERELVAAITSSGGSTFYADSVKGRFTISRDNAKNTVYLQMNSLKPEDSAVYYCAASVGRGYYWGQGTQVTVSS | high polyreactivity
QVQLVESGGGLVQAGGSLRLSCAASGSTFYFNAMGWYRQAPGKERELVAGITYSGDSTYYADSVKGRFTISRDNAKNTVYLQMNSLKPEDTAVYYCAADVDYDLDGDYWGQGTQVTVSS | low polyreactivity
QVQLVESGGGLVQAGGRLRLICAASGSILRYAMGWYIQAPGKERELVAAISYGGGSTYYADSVKGRFTISRDNAKNTVYLQMNSLKPEDTAVYYCNARQYVWYPYEYWGQGTQVTVSS | high polyreactivity
QVQRVESGGGLVQAGGSLRLSCAASGLTFRYYAVGWYRQAPGKERELVAAITSNGGRTYYADSVKGRFTISRDNAKNTVYLQMNSLKPEDTAVYYCAAVYLYYGGVDYWGQGTQVTVSS | high polyreactivity
QVQLVESGGGLVQAGGSLRLSCAASGSTFFRNAMGWYRQAPGKERELVAAISGSGNTYYADSVKGRFTISRDNAKNTVYLQMNSLKPEDTAVYYCADDVVYWYFHYDYWGQGTQVTVSS | low polyreactivity
QVQLVESGGGLDAAGGSLRLSCAASGSTVIAYAMGWYRQAPGKEWELVAVMTSRGGRTYYADSVKGRFTISRDNAKNTVYLQMNSQKPEDTAVYYCATRSYRYLRSYDYWGQGTQVTVSS | high polyreactivity
QVQLVESGGGLVQAGGSLRLSCDASGSIFDGYGMGWYRQAPGKERELVASITWNDGSTYYADSVKGRFTISRDNAKNTVYLQMNSLKPEETAVYYCAADQWGYEYDYWGQGTQVTVSS | low polyreactivity
QVQLGESGGGLVQAGGSLRLSCAASGSTFAKYAMGWYRQAPGKERELVAAISSSGTCTYYADSVKGRFTISRDNAKNTVYLQMNSRKPEDTAVYYCAASYRNRYIAFYYWGQGTQVTVSS | low polyreactivity
QVQLVESGGGLVQAGGSLRLSCAASGSIIYTNAMGRYRQAPGKEREVVAAITGTTTTNYADSVKGRFTISRDNAKNTVYVQMNSLKPEDTAVYYCNADYDRSRVYYSVELYDYWGQGTQVTVSS | low polyreactivity
QVQLVESGVGLVQAGGSLRLSCAASGYIFRLYAMGGYRQAPGKERELVATITASGGTYYADSVKGRFTISRDNAKNTVYLQMNSLKPEDTAVYYCAAAKLRRLSRVRYGYWGQGTQVTVSS | high polyreactivity
QVQLVESGGGLVQAGGSLRLSCAASGRTFTPYAMGWYRQAPGKERELVATISSGTSTNYADSVNGRFTISRDNAKNTVYLQMNSLKPEDTAVYYCAADGYTYKFDYWGQGTQVTVSS | low polyreactivity
QVQLVESGAGLVQARGSLRLSCAPSGRNFTYYAMGWYRQAPGTETELVAAISWSGGRTYYADSVKGRFTISRDNAKNTVYLKMNSLKPEDTAVYYCAADYYAFKFGRFDYWGQGTQVTVSS | high polyreactivity
QVQLVESGGGLFLAGGSLRLSCAASGSTFWYNMGWYRQAPGKDRELVAAISNSSGRTYYADSVKGRCTISRDNPKNTDYLQMKSLKPEDTAVYYSAADPKLGSRTGFYYWGQGTQVTVSS | high polyreactivity
QVQLVESCGCLVQAGGSLRLSCAASGRTFFHYDMGWYRQAPGKDRELEAGISSGGRTKYADSVKGRFTISRDNAKNTVYLQMNSLNPEDTAAYYCAASYIVWLTRGAPRKRFDYWGQGSQVTVSS | high polyreactivity
QVQLVESGGGLDQAGGSLRLSCAASGSISQVYAMGWYRQATGKERELVAVINDADDTSYADSVKGRFTISRDNAKNTVYLQMNSLKPEDTAVYYCAAESSYFVALTQFYTVEFYYWGQGTQLTVSS | low polyreactivity
QVQLVESGGGLVQAGGSLRLSCDASGRIFRYNAMGWYRQAPGKEREFVAAITWRGGSTYYADSVKGRFTISRDNAKYTVYLQMNSLKPEDTAVYYCATRSPFGAAYEYGYWGQGTQVTVSS | high polyreactivity
QEQLLDSGGGLVQAGGSLRLSCAASGYFSSHILSWYRQGPGKVREFVDTITDGGTTDYADSVKGRFTISRDNAKNTVYLQMNSLNPQDTAVYYCAAVATYSYHFGYWGHGTQVTVSS | high polyreactivity
QVQLVESGGGLVQAGGSLRLSCAASGRILNSYAMGWYRQAPGKEREFVAAIRRSRGSPYYADSVKGRFTISRDNAKNTVYLQMNSLKPEETAVYYCAAGRRYSGSYDYWGQGTQVTVSS | high polyreactivity
QVQLVESGGGLVQAGGSLRLSCAASGSIFTQNAMGWYRQAPGKERELVAGISDGDSTNYADSVKGRFTISRDNAKNTVYLQMNSLKPEDTAVYYCNAQGTTETSGGGFFRGMDYWGQGTQVTVSS | low polyreactivity
QVQLVEAGGGLVQAGGSLRLTCAASGSIISRYAMGWYRQAPGKEREFVAAISSSGGSTYYADSVKGRFTISRDNAKNTVDVQMNSLKPEDTAVYYCARYAYKVPIMGYWGQGTQVTVSS | high polyreactivity

Sequence | polyreactivity (PSR sort gate)
QVQLVESGGGLVQAGGSLRLSCAASGSIFDRNAMGWYRQAPGKERELVATITWSGVSTYYADSVKGRFTISRDNAKNTVYLQMNSLKPEDTAVYYCNADYSYRHWYDPGQYGQAMGYWGLGTQVTVSS | low polyreactivity
QVHLVESGGGLVQAGGSLRLSCAASGSTLFPYAMGWYRQAPGKERELVAAISSRGGRTYYADSVKGRFTISRDNAKNTVYLQMNSLKPEVTAVYYCAAGDDYWGQGTEVTVSS | high polyreactivity
QVQLVESGGGLVQAGGSLRLSCDASGRIFRVYAMGWYRPAPGKERELFAAISWSGGRTYYADSVKGRFTISRDNAKNTVYLQMNSLKPEDTAVYYCAAERGGPTYYSGGDYDYWGQGTQVTVSS | high polyreactivity
QVQLVESGGGLVQAGGSLRLSCAASGFTFGKYGMGWYRQAPGKERELVAAISASGGITYYADSVKGRFTISRDNAKNTVYLQMNSLKPEDTAVYYCAVRRRYGAFISYDYWGQGTQVTVSS | high polyreactivity
QVQLVESGGGLVQAGGRLRLSCAASGRILRWYTMGWYRQAPGKERELVAAITSRGGSTYYADSVKGRFTISRDNAKNTVYLQMNSLKPEDTAVYYCAAVSWYTRLTYYYWGQGTQVTVSS | high polyreactivity
QVQLVESGGGLVQAGGSLRLSCAASGRTFGPYAMGWYIQAPGKERELVAAITWSSGRTYYADSVKGRFTISRDNAKNTVYLQMNSLKPEDTAVYYCNKDRFYRNNYGYGYWGQGTQVTVSS | high polyreactivity
QDQLVESGGGLVQAGGSLRLSCAASGLTFYSNTMGWYRQAPGKERELVAGISWGGDTTYYADSVKGRFTISRDNAKNTVYLQMNSLKPEDTAVYYCAADRSYWRHRYSYDYWGQGTQVTVSS | low polyreactivity
QVQLVESGGGLVQSGGSLRLSCAASGRTFFKYSMGWYRQAPGKEREMVATITSSGGITYADSVKGRFTISRDNAKNSVYLQMNSLKPEDTAVYYCNARVWVTHYSELNYWGQGTQVTVSS | low polyreactivity
QVQLVESGGGLVQAGGSLRLSCAAPGSIFYPNAMGWYRQAPGKEREFVAAITKRGGSTYYADSVKGRFTISRDNAKNTVYLQMNSLKPEDTAVYYCAGERSYPRAGRYNYWGQGTQVTVSS | low polyreactivity
QVQLVESGGGLVQAGGSLRLSCAASGRIFGLYARGWSRQAPGKERELVAAYADSVKGRFTISRENAKNTVYLQMNSLKPEDTAVYYCAKGPLYAGYSIDLRDFNYWGQGTQVTVSS | low polyreactivity
QVQLVESGGGLVQAGGSLRLSCAASGRTIRHNAMGWYRQARGKERELVGAISRSGGATYYADSVKGRFTISRDNAKNTVYLQMNSLKPEDTAVYYCAAGYHIIYTPEYYYWGQGTQVTVSS | high polyreactivity
QVQLVESGRGLVQAGGSLRLSCAASGSTFVYNVMGWYRQAHGKERELVAAIRRRGGSTYADSVKGRFTITRDNAKNTVYLQMNSLNPEVTAVYYCAAGIPRYWYAGHYDYWGQGTKVTVSS | low polyreactivity
QVQLVESVGGLVQAGGSLRLSCAASGITFDRNAMGWYRQAPGKERELVAAISSGGTYADSVKGRFTISRDNAKNTVYLQMNSLKPEDTAVYYCNADTDYIRWIYGYWGQGTQVTVSS | low polyreactivity
QVQLVESGGGLVQAGVSLRLSCAASGTTFGLNPMGWYRQAPGKERELVAAISTSGGSTYYADSVKGRFTISRDNAKNSVYLQMISLKPEDTAVYYCAAEVDAGYDYSQYYYWGQGTQVTVSS | low polyreactivity
QVQLVESGGGLVQAGGSLRLSCAASGFTFAYYDMGWYRQAPGKERELVAAITWDGGSTYYADSVKGRFTISRDNAKNTVYLQMNSLKPEDTAVYYCAAPSGPYGYDYWGQGTQVTVSS | high polyreactivity
QVQLVESGGGLVQAGGSLRLTCAASGFIFNYNTMGWYRQAPGKERELVAGINWSGTRTYYADSVKGRFTISRDNAKNTDYLQMNSLKPEDTAVYYCNAYTQQYRSYGYWGQGTQVTVSS | high polyreactivity
QVQLVESGGGLVQAGGSLRLSCAASGSTLSDNAMGWYRQAPGKERELVASISWSGGTYYADSVKGRFTISRDNAKNTVYLQMNSLKPEDTAVYYCAAYIYYNYSRQYWYDYWGQGTQVTVSS | low polyreactivity
QVQLVESGGGLVQAGGRLRLSCAASGRTFPIYAMGWYRQAPGKERELVAAITRGGRTNYADSVKGRFTISRDNAKNTVYLQMNSLKPEDTAVYYCAARTYGTYLYAEYDYWGQGTQVTVSS | high polyreactivity
QVQLQESGDGLVQAVGSLRLSCAASGYISGYYNMGWYRQAPGKERELVAGIDAFGSSTNYADCVKGRFTISRDNAKNTVYLEMNSLKPEDTAVYYFAARPYGDRLFSYWGQGTQVTVSS | low polyreactivity
QVQLVESGGGLVQAGGSLRLSCAASGSIYRYNDMGWYRQAPGKERELVATITSGTNTYYADSVKGRFTISRDNAKNTVYLQMNSLKPEDTAVYYCAKSYIAWDGRTFEEMYYWGQGTQVTVSS | low polyreactivity
QVQLVESGGGLVQAGGSLRLSCAASGFIFPANAMGWYRQAPGKERQFVAAITRRGGSTYYADSVKGRFTISRDNAKNTVYLKMNSLKPEDTAVYYCAARVLSLYTYYYWGQGTQVTVYS | high polyreactivity
